According to patent US20260000781A1 (CIDARA THERAPEUTICS, published 2026):

What was measured:
[1] = target: T1, human CD73 expressed on cells (human, UniProt P21589 27-549); assay: cell-based or functional assay
T1 sequence (looked up): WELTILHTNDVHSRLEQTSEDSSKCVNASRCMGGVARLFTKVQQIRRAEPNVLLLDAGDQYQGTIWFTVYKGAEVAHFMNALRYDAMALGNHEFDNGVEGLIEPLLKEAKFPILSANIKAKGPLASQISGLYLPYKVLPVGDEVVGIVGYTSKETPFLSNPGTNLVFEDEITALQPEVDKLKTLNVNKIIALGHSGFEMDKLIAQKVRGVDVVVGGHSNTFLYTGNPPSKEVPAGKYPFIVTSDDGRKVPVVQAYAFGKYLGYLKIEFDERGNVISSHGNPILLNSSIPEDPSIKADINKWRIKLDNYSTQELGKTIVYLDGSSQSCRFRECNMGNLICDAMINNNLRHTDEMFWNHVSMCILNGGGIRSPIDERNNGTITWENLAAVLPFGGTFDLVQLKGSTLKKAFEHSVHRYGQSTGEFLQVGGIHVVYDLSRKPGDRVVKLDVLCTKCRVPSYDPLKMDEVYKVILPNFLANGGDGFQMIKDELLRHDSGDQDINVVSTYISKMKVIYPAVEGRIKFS

[2] = target: T1, human CD73 expressed on cells; assay: cell-based or functional assay; remark: listed apart in the source
[3] = target: T1, human CD73 expressed on cells; assay: cell-based or functional assay; remark: listed apart in the source
[4] = target: T1, human CD73 expressed on cells; assay: cell-based or functional assay; remark: listed apart in the source
[5] = target: T2, mouse CD73 expressed on cells (mouse, UniProt Q61503 29-551); assay: cell-based or functional assay
T2 sequence (looked up): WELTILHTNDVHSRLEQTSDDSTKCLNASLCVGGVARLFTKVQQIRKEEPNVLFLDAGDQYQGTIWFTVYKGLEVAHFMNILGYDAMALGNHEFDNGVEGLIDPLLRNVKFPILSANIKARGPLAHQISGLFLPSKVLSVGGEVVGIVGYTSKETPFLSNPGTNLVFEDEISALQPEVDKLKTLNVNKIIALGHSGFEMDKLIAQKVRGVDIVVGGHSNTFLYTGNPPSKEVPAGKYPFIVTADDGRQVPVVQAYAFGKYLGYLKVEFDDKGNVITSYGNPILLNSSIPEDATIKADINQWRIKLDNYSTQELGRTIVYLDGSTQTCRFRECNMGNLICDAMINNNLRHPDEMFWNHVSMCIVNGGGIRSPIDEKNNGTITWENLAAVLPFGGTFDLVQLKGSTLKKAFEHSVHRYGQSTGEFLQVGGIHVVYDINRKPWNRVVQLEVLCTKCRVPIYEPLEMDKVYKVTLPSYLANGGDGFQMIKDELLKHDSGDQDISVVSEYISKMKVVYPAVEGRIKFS

[6] = target: T1, human CD73 expressed on cells; assay: cell-based or functional assay; remark: listed apart in the source
[7] = target: T1, human CD73 expressed on cells; assay: cell-based or functional assay; remark: listed apart in the source
[8] = target: T2, mouse CD73 expressed on cells; assay: cell-based or functional assay; remark: listed apart in the source
[9] = target: T1, human CD73 expressed on cells; assay: cell-based or functional assay; remark: listed apart in the source
[10] = target: T1, human CD73 expressed on cells; assay: cell-based or functional assay; remark: listed apart in the source
[11] = target: T1, human CD73 expressed on cells; assay: cell-based or functional assay; remark: listed apart in the source
[12] = target: T3, Enzymatically active His-tagged human CD73/NT5E protein (human, UniProt P21589 27-547); assay: SPR (Biacore 8K), His-tagged human CD73 captured by anti-His antibody, mAb as analyte
T3 construct: Bought protein; also called human CD73/NT5E protein, His-tag (Acro Biosystems cat CD3-H52H7); not shown: His-tag
T3 sequence (looked up): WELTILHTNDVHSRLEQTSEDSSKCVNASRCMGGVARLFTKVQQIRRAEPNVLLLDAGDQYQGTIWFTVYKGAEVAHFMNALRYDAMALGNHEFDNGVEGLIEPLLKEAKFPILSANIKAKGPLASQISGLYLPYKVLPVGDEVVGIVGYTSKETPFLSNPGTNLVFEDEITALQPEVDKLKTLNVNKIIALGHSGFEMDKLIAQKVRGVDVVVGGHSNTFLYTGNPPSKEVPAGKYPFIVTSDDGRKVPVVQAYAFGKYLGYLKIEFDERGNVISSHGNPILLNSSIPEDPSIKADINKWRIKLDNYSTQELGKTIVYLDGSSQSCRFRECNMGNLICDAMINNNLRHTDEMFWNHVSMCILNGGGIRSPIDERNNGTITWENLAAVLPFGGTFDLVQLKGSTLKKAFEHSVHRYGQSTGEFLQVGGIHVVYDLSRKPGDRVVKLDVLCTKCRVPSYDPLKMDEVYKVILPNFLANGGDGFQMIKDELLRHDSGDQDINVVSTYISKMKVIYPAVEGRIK

Binder | cell-based CD73 enzyme inhibition IC50 (MDA-MB-231 cells) [1] [nM] | PBMC activation (CD25+), 30 µM AMP EC50 [nM] [2] [nM] | PBMC activation, CD8+CD25+ EC50 [nM] [3] [nM] | PBMC activation, CD8+granzyme B+ EC50 [nM] [3] [nM] | CD73 inhibition, human PBMCs, 3 h median IC50 [nM] [4] [nM] | CD73 inhibition, human PBMCs, 24 h median IC50 [nM] [4] [nM] | CD73 inhibition, mouse 4T1 cells, 3 h IC50 [nM] [5] [nM] | CD73 inhibition, mouse 4T1 cells, 24 h IC50 [nM] [5] [nM] | Cell internalization EC50 (nM), Fab-ZAP saporin assay, MDA-MB-231 [6] [nM] | CD73 inhibition, human PBMCs, 3 h IC50 [nM] [7] [nM] | CD73 inhibition, human PBMCs, 24 h IC50 [nM] [7] [nM] | CD73 inhibition, mouse EMT6 cells, 3 h IC50 [nM] [8] [nM] | CD73 inhibition, mouse EMT6 cells, 24 h IC50 [nM] [8] [nM] | PBMC activation, CD4+CD25+ EC50 [nM] (median, n = 3) [9] | PBMC activation, CD8+CD25+ EC50 [nM] (median, n = 3) [9] | PBMC activation, CD8+Granzyme B+ EC50 [nM] (median, n = 3) [9] | inhibition of adenosine production (AMP conversion by CellTiter-Glo), human PBMCs, EC50 [nM] [10] [nM] | Cell-based CD73 inhibition IC50 (nM), MDA-MB-231 cells [11] [nM] | Kd [12] [nM]
Oleclumab (antibody, V domains shown) VH: EVQLLESGGGLVQPGGSLRLSCAASGFTFSSYAYSWVRQAPGKGLEWVSAISGSGGRTYYADSVKGRFTISRDNSKNTLYLQMNSLRAEDTAVYYCARLGYGRVDEWGRGTLVTVSS VL: QSVLTQPPSASGTPGQRVTISCSGSLSNIGRNPVNWYQQLPGTAPKLLIYLDNLRLSGVPDRFSGSKSGTSASLAISGLQSEDEADYYCATWDDSHPGWTFGGGTKLTVL | 0.11 | > 1000 | > 1000 | > 1000 | 7.26 | 89.4 | > 100 | > 100 | 0.02 | 0.56 | > 100 | 5.68 | > 100 | > 1000 | > 1000 | > 1000 | 288 | 0.67 | 0.527
Mupadolimab (antibody, V domains shown) VH: QVQLVQSGAEVEKPGASVKVSCKASGYTFTSYWITWVRQAPGQGLEWMGDIYPGSGNTNYNEKFKTRVTITADKSTSTAYMELSSLRSEDTAVYYCAKEGGLTTEDYALDYWGQGTLVTVSS VL: EIVLTQSPATLSLSPGERATLSCRASKNVSTSGYSYMHWYQQKPGQAPRLLIYLASNLESGIPPRFSGSGYGTDFTLTINNIESEDAAYYFCQHSRELPFTFGQGTKVEIK | – | – | – | – | – | – | > 100 | > 100 | – | – | – | > 100 | > 100 | – | – | – | – | – | 123
